± gives the standard deviation.
Assay: protein stability index of a GFP-peptide fusion (GPS, HEK-293T) (PSI 1-6); higher = more stable
[1] = treatment: DMSO, c terminus: a fixed tail appended
[2] = treatment: MLN4924 1 uM, 8 h, c terminus: a fixed tail appended
[3] = treatment: DMSO, c terminus: native
[4] = treatment: MLN4924 1 uM, 8 h, c terminus: native
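Further: 24-mer peptide tiles fused after GFP, lentivirally expressed, FACS-sorted into six equal bins by GFP/DsRed ratio, decoded by Illumina sequencing, PSI is the read-weighted mean bin number.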

Row | Sequence | protein stability index [1] | protein stability index [2] | protein stability index [3] | protein stability index [4]
1 | YTGYCWCVTPNGRPISGTAVAHKT [SMOC2] | 2.73 ± 0.55 | 2.51 ± 0.13 |  | 
2 | SGRFAGREWYYGNVTRHQAECALN [NCK2] | 2.31 ± 0.16 | 2.47 ± 0.22 |  | 
3 | CTLPQLAIAWCLRNEGVSSVLLGA [KCNAB2] | 3.1 ± 0.63 | 2.89 ± 0.36 |  | 
4 | KQIYNLIHLDPRTREGFTLLHLAV [FEM1B] | 2.66 ± 0.52 | 2.67 ± 0.61 |  | 
5 | NAIPGRTDIELEIYGMEGIPEKDM [ZNF207] | 4.23 ± 0.35 | 4.37 ± 0.29 |  | 
6 | LASLSFIDTVYSTAFAPKMIVDLL [OR4A15] | 2.66 ± 0.32 | 3.05 ± 0.34 |  | 
7 | AALTRMRAESTANAGQSDNRSLAE [ANKRD17] | 4.79 ± 0.14 | 4.81 ± 0.15 |  | 
8 | QKQQAPRMDTPPPEERLEKQNEKL [CCDC89] | 5.46 ± 0.44 | 5.62 ± 0.2 |  | 
9 | SFHPLQYIGFYGKETTNTCILKCN [PDS5B] | 1.99 ± 0.44 | 2.27 ± 0.35 |  | 
10 | KREMILKRKEEEALKDSLRPKLSE [VDR] | 4.82 ± 0.28 | 5.24 ± 0.24 |  | 
11 | APEIDPSSDGSNFGWETKIKAWMD [KMT2E] | 4.21 ± 0.41 | 4.36 ± 0.25 |  | 
12 | MAMTAGTTTTFPMSNHTRERVTVA [STK38L] | 3.2 ± 0.36 | 3.28 ± 0.36 |  | 
13 | GDELYEQSDEEQDSVKVALLETNP [CLPTM1] | 5.37 ± 0.19 | 5.44 ± 0.17 |  | 
14 | AGRIDREELCAQSARCVVSFNILV [PCDHGA10] | 2.45 ± 1.1 | 2.37 ± 0.61 |  | 
15 | FDVFSPKQDLVPGSPDDSHPKDGP [DLC1] | 5.43 ± 0.36 | 5.43 ± 0.33 |  | 
16 | RGIIMTFGSGSNGCLGHGSLTDIS [NEK8] | 2.45 ± 0.22 | 2.4 ± 0.31 |  | 
17 | EPNRLETGEAGEELDLRLRLAQPS [RTN2] | 5.17 ± 0.13 | 5.28 ± 0.17 |  | 
18 | HPCGDKNCPAHWLAQDWERCNTTC [ADAMTSL2] | 4.21 ± 0.14 | 3.99 ± 0.26 |  | 
19 | KYGDIPRGIFVVRGENVVLLGEID [LSM1] | 2.27 ± 0.093 | 2.4 ± 0.32 |  | 
20 | ELFKELSINVMKQLIGSSNLFVMQ [GMCL1] |  | 3.95 ± 0.43 |  | 
21 | SPSPPVEVKIEEPVSMEMDNHMSD [INTS3] | 5.59 ± 0.19 | 5.52 ± 0.17 |  | 
22 | NQAGFTLHSAIYAARPDVKCVVHI [ADD1] | 3.1 ± 0.42 | 3.15 ± 0.62 |  | 
23 | DEALAIAALELLPRELFPPLFMAA [PRAME] | 2.78 ± 0.21 | 2.61 ± 0.55 |  | 

Row | Sequence | protein stability index [1] | protein stability index [2] | protein stability index [3] | protein stability index [4]
24 | PETHIFTAPEEVPKVSDQALVSAH [DMRTC1] | 4.96 ± 0.34 | 4.92 ± 0.11 |  | 
25 | SLGKQKVFIIRKSLLDELMEVQHF [SOAT2] | 2.58 ± 0.52 | 2.56 ± 0.73 |  | 
26 | YLDETCTCFVRDGKTYCKRDYVRL [ISL2] | 2.68 ± 0.084 | 2.95 ± 0.3 |  | 
27 | SDVVEYAKEKLESFIKNSDSFDKF [PCMTD1] | 3.7 ± 0.17 | 4.16 ± 0.38 |  | 
28 | PGSCGAGAPSPGSSDVSTAGTGAS [ELF3] | 4.98 ± 0.29 | 5.08 ± 0.17 |  | 
29 | GSSETETEPPVALAPGPAPTRCLP [ESRRA] | 5.23 ± 0.28 | 5.16 ± 0.11 |  | 
30 | ACGIEHCSVHYVSDSGDGVYAGRP [FBXO34] | 2.25 ± 0.29 | 2.84 ± 1.1 |  | 
31 | IHGTLHLERLAYLHARLRELLCEL [PRAME] | 2.04 ± 0.3 | 2.06 ± 0.31 |  | 
32 | MASLLEDLSHIEGLSQAPQPLADE [SERTAD1] | 4.82 ± 0.092 | 4.72 ± 0.1 |  | 
33 | AIQGISEKEKAEIEAKEACDWLRA [DLC1] | 4.69 ± 0.42 | 4.72 ± 0.39 |  | 
34 | FLLCARSLLRGFLLQNEFVGFMWR [MCOLN1] | 2.55 ± 0.34 | 2.39 ± 0.79 |  | 
35 | FRFTYYTILDIFRFALRFIRPDPR [FAF2] | 2.56 ± 0.067 | 2.47 ± 0.33 |  | 
36 | QTASRSLVLSEDRKSVRYTRQKKN [TRIM15] | 4.83 ± 0.27 | 4.8 ± 0.24 |  | 
37 | FWLGNEALHSLTQAGDYSMRVDLR [TNXB] | 2.19 ± 0.71 | 2.44 ± 0.14 |  | 
38 | LIFFGGYGYLPEDKVLGTFEFDET [KLHDC2] | 2.13 ± 0.66 | 2.6 ± 0.73 |  | 
39 | SHFVFVIEVKTKGGSKYLIYRRYR [NCF4] | 2.81 ± 0.56 | 2.48 ± 0.33 |  | 
40 | VAPQDQCKLTCQAQALGYYYVLEP [ADAMTS4] | 2.58 ± 0.22 | 2.4 ± 0.04 |  | 
41 | DFIHRHCQDQNVPVENFFVKCNGA [SDE2] | 2.83 ± 0.088 | 2.95 ± 0.34 |  | 
42 | FFAFEHSEEYQQAQHKFLVAVESM [TCF25] | 3.59 ± 0.35 | 3.56 ± 0.4 |  | 
43 | RSSSRINIPERASGPEGNLNQIVT [FAM104B] | 4.28 ± 0.27 | 4.36 ± 0.2 |  | 
44 | VTQPCGDCGTIQENWVCLSCYQVY [HDAC6] | 2.89 ± 0.57 | 2.96 ± 0.7 |  | 
45 | HKVLELTAENERLQKKVEQLSREL [CEBPB] | 5.76 ± 0.23 | 5.811 ± 0.011 |  | 
46 | ILLNGVSGWIFFYVPSSESFIIYL [P2RY14] | 2.74 ± 0.27 | 2.84 ± 0.52 |  | 

Row | Sequence | protein stability index [1] | protein stability index [2] | protein stability index [3] | protein stability index [4]
47 | LKSMDKNGTMTIDWNEWRDYHLLH [SLC25A25] | 2.27 ± 0.05 | 2.19 ± 0.28 |  | 
48 | WNFEITNQSFNIVDIKPANMEELT [PPP2R2B] | 3.4 ± 0.55 | 3.13 ± 0.65 |  | 
49 | ASKGCQLGKTEQGFENMDFFTLDL [TRIM63] | 3.22 ± 0.19 | 3.22 ± 0.31 |  | 
50 | YDKNIIHKTAGKRYVYRFVCDLQS [ETS1] | 2.11 ± 0.17 | 2.14 ± 0.17 |  | 
51 | EGDVLDTLEALGYKGPLLEEQALT [FAM98B] | 4.36 ± 0.34 | 4.35 ± 0.12 |  | 
52 | AEDKAAVERSKMIDRNLREDGEKA [GNAI1] | 5.691 ± 0.042 | 5.34 ± 0.13 |  | 
53 | IFSLATEWVISTGHDKCVSWMCTR [WDFY1] | 2.94 ± 0.47 | 2.85 ± 0.66 |  | 
54 | TKEKKHQCDHCERCFYTRKDVRRH [PLAGL1] | 3.69 ± 0.48 | 4.2 ± 0.5 |  | 
55 | FDSDWYTSRNLIGGADIIVIKYNV [RHOBTB3] | 2.73 ± 0.52 | 3.12 ± 0.4 |  | 
56 | IHLDPRTREGFTLLHLAVNSNTPV [FEM1B] | 2.24 ± 0.41 | 2.17 ± 0.27 |  | 
57 | ICPICLEMFTKPVVILPCQHNLCR [TRIM55] | 2.42 ± 0.17 | 2.96 ± 0.51 |  | 
58 | DPLANGCQGVSEAAHRLARRLYHL [PSD2] | 3.24 ± 0.18 | 3.52 ± 0.059 |  | 
59 | LEVADFLIKAGADIELGCSTPLME [ANKRD17] | 2.89 ± 0.56 | 2.82 ± 0.22 |  | 
60 | VQSLCAKHGIEYQSKPLLSAFADI [FADS1] | 2.31 ± 0.3 | 2.32 ± 0.26 |  | 
61 | VFIISTLAIDFIDEGRLLLEFDLL [SOAT2] | 3.23 ± 0.31 | 3.03 ± 0.36 |  | 
62 | PHKERYFDRVDENNPEYLRERNMA [ADD1] | 4.47 ± 0.36 | 4.69 ± 0.14 |  | 
63 | FCASTRLPPTPLLLFPEEEATNGR [AUP1] | 3.03 ± 0.59 | 3.79 ± 0.31 |  | 
64 | LAVYHRLWDRAYVRLKPALQRLDF [RETREG3] | 2.31 ± 0.38 | 2.56 ± 0.4 |  | 
65 | GSRVLHVVQTLYPFSSVTEEELNF [NCK2] | 2.31 ± 0.31 | 2.31 ± 0.22 |  | 
66 | PLLCPGCQGQPQGKAVVSHSKGHK [ELOA2] | 4.12 ± 0.43 | 4.53 ± 0.42 |  | 
67 | SDVDQLYLIIRTLGKLIPRHQSIF [CDKL4] | 3 ± 1.2 | 2.67 ± 0.77 |  | 
68 | VRKVPPGYSIKVFDFERSGLQHAP [SMAD6] | 2.31 ± 0.33 | 2.63 ± 0.035 |  | 
69 | RTLRNFINDEMQAKGIPQRAPPKR [PCMTD1] | 4.06 ± 0.16 | 3.98 ± 0.36 |  | 

Row | Sequence | protein stability index [1] | protein stability index [2] | protein stability index [3] | protein stability index [4]
70 | DALRFTADVRSVLSRNLHQHRLW [CTDNEP1] |  |  | 2.6 ± 0.48 | 2.99 ± 0.26
71 | SFPRNNISYLVLSMISMGLFSIAP [JAGN1] | 3.32 ± 0.2 | 3.42 ± 0.42 |  | 
72 | EACKAFFKRTIQGSIEYSCPASNE [ESRRA] | 2.98 ± 0.19 | 3 ± 0.17 |  | 
73 | NFFTTLRVVHHKFHSQRHGSKKD [TMEM120A] |  |  | 3.32 ± 0.33 | 3.3 ± 0.45
74 | RYAEHVAATQALPQDSGTAAWKGR [C22orf31] | 4.1 ± 0.17 | 4.14 ± 0.35 |  | 
75 | QELPPYNGFGLVEDSAQNCFALIP [EFHC1] | 3.38 ± 0.18 | 3.4 ± 0.24 |  | 
76 | SIAFRLRLASFDSSGKLICSRTTG [GMCL1] | 2.52 ± 0.4 | 2.09 ± 0.34 |  | 
77 | FLMLAVSLTVPLLGAMMLLESPID [APMAP] | 3.52 ± 0.26 | 3.64 ± 0.37 |  | 
78 | EQERRERREQAAAAPFPSPAPASP [TFE3] | 5.52 ± 0.18 | 5.48 ± 0.14 |  | 
79 | NKKGFWSYGPVILVVLVVAVVASS [TOR1AIP2] | 1.78 ± 0.42 | 1.83 ± 0.042 |  | 
80 | YIFRVANHQKDLFRRTDGRCLIWG [DHCR7] | 2.77 ± 0.23 | 2.35 ± 0.41 |  | 
81 | AVQDHGQPPLSATVTLTVAVADSI [PCDHGA10] | 2.83 ± 0.22 | 2.98 ± 0.34 |  | 
82 | YPASIVDEPTFKVLLKTADPRYEL [ZBED1] | 2.89 ± 0.26 | 3.27 ± 0.29 |  | 
83 | LHVKRSMGWKKACDELELHQRFLR [ZMYND11] | 2.31 ± 0.12 | 2.55 ± 0.45 |  | 
84 | WEKKPFSEDVNWGYEKRNLARVPK [CHGB] | 3.38 ± 0.3 | 3.87 ± 0.17 |  | 
85 | PRSCSSGPAGPYLLSKKGALQSRA [PLEKHN1] | 3.96 ± 0.52 | 4.29 ± 0.39 |  | 
86 | TRVLAEMREQYEAMAERNRRDAEE [KRT13] | 5.26 ± 0.2 | 5.18 ± 0.28 |  | 
87 | PIGCDGVLFSTHTLDKCGICQGDG [ADAMTSL2] | 3.62 ± 0.26 | 3.79 ± 0.47 |  | 
88 | NNPFAKGFRGSDDMELHRMSRMQS [TBX5] | 4.15 ± 0.33 | 4.06 ± 0.22 |  | 
89 | MADSGLREPQEDSQKDLENDPSVN [TOR1AIP2] | 5.65 ± 0.19 | 5.57 ± 0.21 |  | 

From the supplement of paper PMC10567573
